Results reported in patent US7803758B2, “I kappa B kinase complex as a target for the treatment of Huntington's disease” (California Institute of Technology, priority 2004, dated 2010).

B1: DN-IKKγ: IKKγ with the first 134 amino acids removed; N-terminally truncated form that interferes with IKK activity (protein, UniProt Q9Y6K9 135-419, looked up, fragment)
chain: MAEDKASVKAQVTSLLGELQESQSRLEAATKECQALEGRARAASEQARQLESEREALQQQHSVQVDQLRMQGQSVEAALRMERQAASEEKRKLAQLQVAYHQLFQEYDNHIKSSVVGSERKRGMQLEDLKQQLQQAEEALVAKQEVIDKLKEEAEQHKIVMETVPVLKAQADIYKADFQAERQAREKLAEKKELLQEQLEQLQREYSKLKASCQESARIEDMRKRHVEVSQAPLPPAPAYLSSPLALPSQRRSPPEEPPDFCCPKCQYQAPDMDTLQIHVMECIE

Legend:
[1] = tested on: PC12 cells expressing mutant HDx1; experiment: Mutant HDx1 toxicity in PC12 cells treated with IKK inhibitor; type: cell-based; details: Example 5
Method: To examine the effects of a small molecule IKK inhibitor on mutant Htt toxicity, PC12 cells expressing mutant HDx1 are treated with herbimycin or another known IKK inhibitor plus β-gal and NF-κB reporter in six-well plates, essentially as described above in Example 4.

[2] = tested on: NF-κB-dependent gene expression; experiment: NF-κB luciferase gene reporter assay in inducible PC12 cells expressing mutant HDx1; type: cell-based
Source text: Gene Reporter and transfections. The pNF-κB-luciferase with five enhanced elements and the control plasmid without NF-κB binding sites, pCIS-CK luciferase, were used for gene reporter assays (Strategene, La Jolla, Calif.). To normalize for transfection efficiency between samples, a β-galactosidase (β-gal) construct expressed from the EF-1α promoter (Invitrogen, Carlsbad, Calif.), was included in all gene reporter assays. PC12 cells were transfected with control or NF-κB-luciferase plasmids using lipofectamine-plus. On the following day, cells were left untreated or stimulated for 8 hr with 1 μg/ml ecdysone to induce expression of HDx1. […] Luciferase activity was measured by addition of the substrate (Promega, Madison, Wis.) to equal amounts of protein from each sample. […] All gene reporter assays were corrected for transfection efficiency by normalizing the units if β-gal in the extracts, using the β-gal assay (Invitrogen). β-gal values from the samples were divided by the β-gal value from control, 25polyQ, noninduced PC12 cells (no expression of HDx1) and multiplied by each corresponding luciferase reading. […]
Gene Reporter and transfections. […] Protein concentration was determined by the BCA method (Pierce, Rockford, Ill.). […] Bound p65 was detected with a goat anti-rabbit antibody conjugated to horseradish peroxidase. […]

[3] = biological target: T1, IKKβ subunit (Homo sapiens, UniProt O14920); details: Ogino et al., Mol. Pharmacol. 2004; cited from earlier work
T1 sequence (O14920 1-756): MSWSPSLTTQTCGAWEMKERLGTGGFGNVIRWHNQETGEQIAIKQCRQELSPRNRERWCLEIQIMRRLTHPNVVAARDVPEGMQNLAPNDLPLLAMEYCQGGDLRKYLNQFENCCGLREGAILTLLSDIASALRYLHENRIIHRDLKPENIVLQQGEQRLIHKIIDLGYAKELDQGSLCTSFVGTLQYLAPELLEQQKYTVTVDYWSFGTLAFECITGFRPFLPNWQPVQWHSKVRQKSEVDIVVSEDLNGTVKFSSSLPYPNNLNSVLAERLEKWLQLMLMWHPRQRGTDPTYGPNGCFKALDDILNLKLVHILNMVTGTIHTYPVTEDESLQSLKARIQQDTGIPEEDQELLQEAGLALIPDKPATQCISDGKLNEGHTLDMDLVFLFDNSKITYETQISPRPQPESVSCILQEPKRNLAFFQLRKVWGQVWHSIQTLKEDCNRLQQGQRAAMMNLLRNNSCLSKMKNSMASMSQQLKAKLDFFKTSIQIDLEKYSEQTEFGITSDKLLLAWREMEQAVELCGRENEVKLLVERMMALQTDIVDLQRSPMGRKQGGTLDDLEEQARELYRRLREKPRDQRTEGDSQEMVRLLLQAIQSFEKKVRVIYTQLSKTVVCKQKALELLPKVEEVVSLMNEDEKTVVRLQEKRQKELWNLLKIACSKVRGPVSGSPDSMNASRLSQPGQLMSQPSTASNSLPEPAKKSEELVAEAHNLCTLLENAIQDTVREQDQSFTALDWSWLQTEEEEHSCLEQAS

[4] = tested on: striatal MSNs; experiment: Brain slice neurodegeneration assay (biolistic transfection of MSNs with HDx1); type: cell-based; details: P7 rat brain slices; for effect on MSNs expressing WT HDx1: coexpression with WT HDx1; for neurodegeneration / toxicity of mutant HDx1 in MSNs: coexpression with mutant HDx1, 7 d
Method: Brain slice preparation. All animal experiments were performed in accordance with the Institutional Animal Care and Use Committee and Duke University Medical Center Animal Guidelines. Postnatal day 7 (P7) CD Sprague Dawley rats (Charles River Laboratory, Raleigh, N.C.) were decapitated, and the brains were surgically removed and placed in ice-cold Neurobasal medium (Invitrogen). The tissue was fixed to a chilled, stainless steel Vibratome stage using cyanoacrylate glue (Krazy-Glue) and covered with Neurobasal medium. Coronal brain slices (250 μm thick) were cut by Vibratome (VT1000S; Leica, Nusslock Germany) as described previously (Edgerton and Reinhart, 2003). Brain slices were kept at 37° C. in 5.0% CO2 for 1 hr.
Bolistic transfection. Gold particles (1.6 μm gold microcarriers; BioRad, Hercules, Calif.) were used as DNA carriers for transfection as described previously (Lo et al., 1994). Briefly, gold particles were sonicated in 0.05 M spermidine in the presence of plasmid DNA. The gold-DNA mixture was washed three times in 100% ethanol before being loaded into Helios plastic cartridges (Bio-Rad) according to manufacturer's instructions. Slices were transfected using a Bio-Rad Helios gun with a cyan fluorescent protein (CFP)-tagged Htt fragment, together with yellow fluorescent protein (YFP) as a morphometric marker. In a number of experiments, one of the IKKγ constructs was also cotransfected with the Htt-construct and YFP. CFP-tagged Htt fragments were exon-1-N-terminal fragments containing either a short-Q (Q23) or a long-Q (Q148) polyQ domain.
Brain slice neurodegeneration assay. For each condition, transfections were performed on […] brain slices per experiment. Protein expression and neurodegeneration (loss of processes, shriveling of the soma) were assay 2-7 d after transfection using a Leica fluorescence microscope with appropriate filters for YFP and CFP. The total area of the striatum was identified, and transfected MSNs were identified by their morphology. CFP fluorescence was used to determine expression of Htt fragments and their aggregation into macro-inclusions. Each experiment involved three to twelve transfected brain slices per condition, and the data are means from six independent experiments for each condition.

[5] = tested on: HEK-293 cells; experiment: Mutant HDx1 toxicity in transfected HEK-293 cells (count of condensed GFP-positive bodies); type: cell-based, Human; details: 48 hr after transfection
Method: (§1) Transfection of HEK-293 cells with mutant HDx1-EGFP alone (Kasantsev et al., 1999) or with one of the following constructs, full-length (F), DN, and deleted C terminus (DC) of IKKγ (provided by Dr. E. Zandi, University of Southern California) Rothwarf et al., 1998) or ΔF-βTrCP, was done using lipofectamine-plus reagents (Invitrogen). For histochemistry, cultured cells were fixed in 4% paraformaldehyde for 30 min, permeabilized with 70% methanol for 1 hr., and washed with PBS. Cells were stained with anti-HA for IKKγ or anti-myc for ΔF-βTrCP (Cell Signaling, Beverly, Mass.) followed by a goat anti-mouse antibody conjugated by Alexa 594 (Molecular Probes, Eugene, Oreg.). Toto-3, a dimeric cyanine, was used to stain nuclei (Molecular Probes). […] Mutant HDx1 toxicity was assessed by counting the number of condensed GFP-positive bodies, which are remnants of […] deoxynucleotidyl transferase-mediated biotinylated UTP nick endlabeling (TUNEL)-positive (TUNEL^+) cells (Khoshnan et al., 2002), using a florescence microscope. […] Apoptotic cells were labeled with terminal deoxynucleotidyl transferase using digoxigenin-labeled nucleotides and detected by anti-digoxigenin antibody and rhodamine-conjugated secondary according to the instructions provided by the manufacturer (Chemicon, Temecula, Calif.).

[6] = tested on: mutant HDx1; experiment: Confocal examination of mutant HDx1 aggregation in HEK-293 cells; type: cell-based, Human; details: early time point before widespread toxicity
Method: as §1

[7] = biological target: T2, GST-HDx1 (Homo sapiens, UniProt P42858, INS38QQQQQQQQQQQQQQQQQQQQQQQQQQQQQQ); experiment: GST pull-down binding of in vitro-translated IKKγ constructs to GST-HDx1; details: [35S] methionine-labeled construct, GST-HDx1 with expanded polyQ
T2 construct: GST-HDx1 with 20 or 51 polyQs, with and without polyproline domains, was obtained from Dr. E. Wanker; made in house; host or cells: Escherichia coli
T2 sequence (P42858 with tags, fused parts or gaps with the stated changes): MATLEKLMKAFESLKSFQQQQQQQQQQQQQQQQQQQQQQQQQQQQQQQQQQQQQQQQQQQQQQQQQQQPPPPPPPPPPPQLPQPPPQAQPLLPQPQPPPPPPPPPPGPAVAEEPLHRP
Method: Protein-protein interaction. In vitro binding of IKKγ to mutant HDx1 was performed using glutathione S-transferase (GST)-pull down assays. GST-HDx1 with 20 or 51 polyQs, with and without polyproline domains, was obtained from Dr. E. Wanker (Max Plank Institute, Berlin, Germany). These constructs were expressed in Escherichia coli and purified with glutathione beads (Amersham Biosciences, Piscataway, N.J.) according to manufacturer's instructions. IKKγ constructs were transcribed and translated in rabbit reticulocytes in the presence of [^35S] methionine (Promega). Briefly, 5 μg of GST-HDx1 bound to beads was incubated with 10 μl of each labeled in vitro-translated IKKγ produce in 500 μl of Tris-based buffer containing 10% glycerol and 6 mM DTT and rocked at room temperature for 2 hr. Beads were washed five times in the same buffer. Bound IKKγ was examined by SDS-PAGE, followed by autoradiography. Recombinant anti-HDx1 intrabodies (Khoshnan et al., 2002) were expressed and examined similarly from binding to GST-HDx1. For competition assays, 10-fold excess in vitro-translated intrabodies were added to GST-HDx1 plus deleted C terminus IKKγ and processed as above.

[8] = tested on: HEK-293 cells; experiment: TUNEL staining of HEK-293 cells transfected with mutant HDx1; type: cell-based, Human; details: HEK-293 cells cotransfected with mutant HDx1
Method: as §1

Row | Molecule | toxicity of mutant HDx1 in cultured cells [1] | NF-κB expression ([2]; PC12 cells expressing mutant HDx1, Example 5) | NF-κB activation [3] | effect on MSNs expressing WT HDx1 [4] | neurodegeneration / toxicity of mutant HDx1 in MSNs [4] | toxicity of mutant HDx1 (condensed GFP+ bodies) [5] | aggregation of mutant HDx1 [6] | mutant HDx1-induced NF-κB-dependent gene expression ([2]; PC12 cells, ecdysone-induced HDx1, with or without NGF) | binding of IKKγ construct to HDx1 [7] | number of TUNEL+ cells [8]
1 | CO[C@H]1[C@@H](OC)C[C@H](C)[C@@H](OC)C2=CC(=O)C=C(NC(=O)/C(C)=C/C=C\[C@H](OC)[C@@H](OC(N)=O)/C(C)=C/[C@@H]1C)C2=O [Herbimycin, Herbimycin A] | blocks the toxicity | reduce NF-κB expression | abrogates NF-κB activation | – | – | – | – | – | – | –
2 | IKKγ: full-length regulatory subunit of the IKK complex, expressed from a construct | – | – | – | no obvious effect | no significant effect on neurodegeneration | little effect on toxicity | promotes aggregation of mutant HDx1 | – | – | –
3 | WT-βTrCP: wild-type E3-ubiquitin ligase βTrCP | – | – | – | – | does not influence the toxicity of mutant HDx1 in MSNs | – | – | – | – | –
4 | B1 | – | – | – | no obvious effect | significantly neuroprotective | strongly reduces the toxicity of mutant HDx1 | no apparent effect on HDx1 aggregation | blocks basal and NGF-induced NF-κB-dependent gene expression | diminishes binding to HDx1 | significantly reduced
